Experiment: yeast display, Sf9 membrane polyspecificity reagent, FACS + sequencing; frameworks hold sequencing errors
Summary of the method: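 After 36–48 hours of galactose induction, yeast (Saccharomyces cerevisiae BJ5465) displaying a synthetic nanobody library were stained at 4 °C for 1 hour with 10% biotinylated, detergent-solubilized Sf9 membrane reagent. Streptavidin microbeads enriched the stained cells before FACS sorting into low and high (top ~1%) gates on anti-HA and streptavidin fluorescence. Each clone's polyreactivity label reflects its gate of origin.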

Row | Sequence | polyreactivity (PSR sort gate)
1 | QVQLVESGGGLVQAGGSLRLSCAASGRIFKSYAMGWYRQAPGIERELVAAIRSGGSTYYADSVKGRFTISRDNAKNTVYLQMNSLKPEYTAVYYCNRVTRTWKVTYHSWGQGTQVTVSS | high polyreactivity
2 | QVQLVESGGGLVQAGGSLRLSCAASGSIIWFYAMGWYRQAPGKEWELVAAISGSDTSTYYADSVKGRFTISRDNAKNTVYLQMNSLKPEDTSVYYCAADDGTTFGYGYWGQGTQVTVSS | low polyreactivity
3 | QVQLVESGGGLVQAGGSLRLSCAASGLTFYYYVMGWYRQAPGKEREFVAAISRSGGSTYYADSVKGRFTISRDNAKNTVYLQMNSLKPEDTAVYYCASYTHDFGYKYWGQGTQVTVSS | high polyreactivity
4 | QVQLVESGGGLVQAGGSPRLSCAASGRTFAEYPMGWYRQAPGKERELVAGISWSGGSTYYADSVKGRFTISRDTAKNTVYLQMNSMKPDDTAVYYCAARGWKRGYYIGHYYYWGQGTQVTVSS | low polyreactivity
5 | QVQLVESGGGLVQAGGSLRFSCAASGNIIDLYAMGWYRQARGQERVLVAAITRSSSRTYYADSVKGRFTISRDIAKNTVYLQMNSLKPEDTAVYYCRANQVNRLDYWGQGTQVTVSS | high polyreactivity
6 | QVQLVESGGGLVHAGGSLRLSCAASGSTFPRNDMGWYRQAPGKERELVAAISRGGSTNYADSVKGRFTISRDNAKNTVYLQMNSLKPEDTAVYYCAAQIFESAYGMDYWGQGTQVTVSS | low polyreactivity
7 | QVQLVESGGGLVQAGGSLRLSCAASGFTFDKYAMGWYRQAPGKERELVAAISSSGGSTYYADSVKGRFTISRDNAKNTVYLQMNSLKPEDTAVYYCATGRIRWYARYDYWGHGTQVTVSS | high polyreactivity
8 | QVQLVESGGGLVQAGGSLRLSCAASGSNFGYYAMAWYRQAPGKERELVAVITWNTGNTYYADSVKGRFTISRDNAKNTVYLQMNRLKPEDTAVYYCAADQTGWGDTYDYWGQGTEVTVSS | low polyreactivity
9 | QVQLVESGGGLVQAGGSLRLSCAASGRTFYYNAMGSYRQAPGKEREFVAAITWSGTRTYYADSVKGRFTISRDNAKNTVYLQMNSLKPEDTAVYYCAARRGVQGTQYYYWGQGTQVTVSS | high polyreactivity
10 | QVQLLESGGGLVQAGGSLRLSCAASGFIFPGYAMGWYRQAPGKEREFVAAITSRGGSTYYADSVKGRFTISRDNAKNTVYLQMNSLKPEDTAVYYCAARNFLSRRGTYDYWGQGTQVTVSS | high polyreactivity
11 | QVQLVESGGGLVQAGGSLRLSCAASGFTFSKYDMGWYRQATGKERELVAAISRSAGSTYYADSVKGRFTISRDHAKNTVYLQMNSLKPEDTAVYYCARDNPRSPSGYNYWGQGTQVTVSS | high polyreactivity
12 | QVQLVESGGGLVQAGGSLRFSCAASGSTFVYNAMGWYRQAAGQERELVAVITYRGGRTYYADSVKGRFTISRDNAKNTVYLQINSLKPEDTAVYYCAAQTFRYRKKLDYWGQGTQVTVSS | high polyreactivity
13 | QVQLVESGGGLVQAGGSLRLSCAASGFTIYYYAMGWYRQAPGKERELVASITSGGSTYYADSVKGRFTISRDNAKNTVYLQMHSLKPEDTAVYDCAKTRLHSKEGDYWGQGTQVTVSS | low polyreactivity
14 | QVQLVESGGGLVQAGGSLRLSCPPSGTFSFYAMGWYRQAPGKERELVATIRSGGRTYYADSVKGRFTISRDNAKNTVYLQMNSLKPEDTAVYYCAAASTKLSGSDYDYWGQGTQVTVSS | high polyreactivity
15 | QVQLVESGGGLVQAGGSLRLSCAASGRTFAGNAMGWYRQAPGKERELVAAISQGGGSTYYADSVKGRFTISRDNAKNTVYLQMNSLKPEDTAVYYCAAEIPRRWASFATLWYDYWGQGTQVTVSS | low polyreactivity
16 | QVQLLESGAGLVQAGGSLRLICAASVNTFYWYAMGRYRQAPGKERELVAAITWSGGSTHYADSVKGRFTISRDNAKNTVYLQMNSLTPEYTAVYYCAARYFRWWDMGYWGQGTQVSVSS | high polyreactivity
17 | QVQLEESGGGLVQAGGSLRLSCAASGSTFWYYAMGWYRPAPGKERELVAALSRSTGSTYYADSVKGRFTISRDNAKNTVYLQMNSLKPEDTAVYYCAADSYDWWQYTTSVHFDYYWGQGTQVTVSS | low polyreactivity
